From the domain aggregation screens of Martell et al. (2025)

Test: soluble fraction after stress (log2 fold change); higher = more stays soluble; pooled small domains, quantitative proteomics
Conditions: stress: 75 degC
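Further: 20 min heating vs room temperature control held 20 min.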

Sequence	soluble fraction (log2)
HMDLKHNQITMRELLRNKQAYLLLYKEFPMFMTPAILQNIRPLTLQQIIQMVRPYISRPKLNMLLEQLENI	0.164
HMGASALTEREREVLRLLEGGGSDKRIARQLAISEHGVRYHLKSIYKKLGVHDRVSAIAAGRRLAS	-1.37
HMAPLEPLTDRETEMLVRLANGASNKVMARESFVSENTIKFHLKNIYAKLGVTSRLQAIAAARNQGLI	-1.31
HMPSPSTLAKVDPFLLVTNADSLLMARPDDSELRAAIITAHINLAKTNNSVDHYKEVLKIEPQNALANYN	0.17
HMENYIEQLTAKNSEYIHVVTRELVKIGKSDEEIKAILSDILPQIVAAQDQRVLAKDILGTPSEFTAKYAP	0.462
HMSTVISPLPGNIIKVLVPEGKSVKRGDTILTIESMKMENSIKAAYDGVVKKIYVQQAQIVMQGDPLFDL	-2.86
HMAQLPADMSKVKSADISEAQLQEFIQKATSSGYNMNQIEMEFAKRGMSENEVSLLRPRLRRLMAS	-0.0413
HMTGDISRALDQLPADMRTVLILYALEKQRYEDIAQITGVSVGTVKSRLNRARQKLAAILANQREQNE	-1.49
HMFTFEDMDKFESLLTTGLTDVQRRIYSLVTHDGKEYDLIAETLGISVEAVRMHMSRARKKIRENYKKID	-3.38
HMNLAPLLTEYVQINFRRASEMKTYLEQANLISERGFLLADDQTNILMVRETGASIEEIRRTLNRF	-1.92
HMGSLQPLLLAAIDALQTHIRSGLPFRVEERLAELDQFRTELQNGSVPPQRGVNRLWAFYEDEFRL	-1.06
HMVKNLRKLREELGLTQQRLAELTGISKSRIYSYESLDREPDIAGLITLADFFSVSIDYLVGK	-2.66
HMRAERVQITDPYIELHTGPGRGFPIFFVAPREQWISIELRHTDWFKVRAVGGQVGWVQRKQLEST	-1.56
HMSPGAKIEVTGNTVNLRAGPGTNYDTRGQVKKGEQLPLLGEQGGWYRVQTSRGVAYLAGWLARVLT	-1.43
HMEVGKRIAEIRKENRMSQEQFGQLFHVTRQTVSNWENAKSYPDLQTLVKISELFEITMDELLK	-1.45
HMRREIRLTVTEEIVLMKFLLTQIPYKNRDNFKTLLNDRQIRVNGSVVTWYNHPLKPGQEVTIGWFKM	-0.264
HMNGVSNETLIQKSALYEELNQPDLALKMINTALKKDSVNIEILHRLVTLLMSQEKNEEAILYNQKIIDH	0.0902
HMHMHTADDFKQLAKHTSNGRLRTRYLALYHFKKGETRTQIAAYLGVARGSVNTWVSNYLAYGLEGLQS	-2.53
HMESILDDFPGLGEKRKKALLEHFGSISKIKAATVGQLREVDGIGFETAAALREFLDANFPA	0.188

Sequence	soluble fraction (log2)
HMYSLGPKERSIVSFIANRPGSRSGQIAKSLQIPLPTIKRILNGLVENKVIARHGIGAGTNYVVEDQA	-0.711
HMDKSHYEELGVSRTATHAEIRRAYRHLMRTLHPDSNDGRVDAVRITKVNEAWNVLSQSSSRNAYDKSQV	-0.235
HMLDQAVPVFETPKYAVSYIQNRLVEMKAASPEEAASRFYESISESERRGLFEALLIKEAEES	0.0105
HMQQLDDDTVAYVADNGIAVKSKNGKELSVDTSGLSYDIIMDMFRNLPRNGDFFSSKYWSDNIQKAQAR	0.447
HMEKYIVEAEEQGKRLDMYISSKDEELTRTSAQRLIEQGDILVNNKKVKVAYKVSEGDIIAVEKQ	-0.0711
HMKYKWLAGQLRRELLENGGKKGYKLPTELELARRYQLSRQTVRRALQLLEEEGLILRRQGSGAYATGKPP	-0.729
HMGQISLSVNAIPEKAEVILDGNSIGNTPIRKNTITPGSHMFEIEKKGYAPISYDIYVNPSKAINLDFFM	-0.974
HMSSGKTGTITLQPKQTVYGITKQYKISEADLRKLNPQLDSNLKIGDKITLPLDNIQRYSDSSSNVAQT	0.0568
HMEQISDEDTLRKMVNEVLDNNQTQLEQYKSGKTNLIGFFVGQTLKKSAGKANPSIVNKLVNEEIYI	0.141
HMKNLSQAEFMYLFKILAFGSTDPDNHPEMAATGMEIAKMLQGLLLSGNVLADILRKNQNVQFWL	0.0572
HMKRFSPPSIEEVDSYIREKGYTVDAERFVNFYESKGWYVGKNKMKNWRAAVATWQKEDNKRN	-0.226
HMDIYLTAFKTTSNQVTLNGIARSDLIISEFMRDIRDAKLFGEPVLQVIQNKNLNNVQARVFELVVPL	0.115
HMPPTSADGIEKYLASGMIRGVGPVYAKKLVSAFGDKVFDIIEAAPHQLQEVEGIGRVRAASILAAWAEQ	-0.549
HMTVGEKIQKYRKDLDLSQEELGQKLLVSRQTISLWEKDQTVPTIDNLIRLREIFGVSVDEILGF	-0.818
HMKLINEDLNNEIVFEENKVNLLVIENKKKFVQFIQEIIKQINGDEGKFSLFDINTELKIHDKIDII	0.174
HMPVFSLTPRELEILEWMSTPNTYRQIAAQLSVSEETVRSHAKNILEKMRQPNRAQAVLAAVKMGLIKL	-1.57
HMTSLYDILGIAKTADSQTIKTAFKKKALLYHPDKNNGNLKKEEIFKKISTAYQILSDPKSRANYDLSIA	-0.272
HMDGIPVPDVKGTVEAEATATLKNSGFEVTKTQDFSDTVEAGKVISQNPAGGSSAASGSSVTLVISQGPN	-0.0786
HMTELIEDYVELIGDLIRHRGEARAADIANRMAVSQATVSKMIRRLNELGLVTSKPYRSLFLTDEGQKMAE	-0.363
